Reference: patent publication US20260070986A1

Columns and labels:
[1] = target: CD16A endogenously expressed on primary human NK cells (human) (UniProt P08637); experiment: flow cytometry on primary human NK cells, biotinylated antibody, 37 C, with 10 mg/mL polyclonal human IgG as competitor, mean of 4
[2] = target: human CD16A-mFc (158F) (sAg_107) (human) (UniProt P08637); experiment: ELISA on coated human CD16A-mFc (158F), anti-mouse HRP detection
[3] = target: human CD16A-mFc (158V) (sAg_149) (human) (UniProt P08637); experiment: ELISA on coated human CD16A-mFc (158V), anti-mouse HRP detection
[4] = target: CD16A endogenously expressed on primary human NK cells (human) (UniProt P08637); experiment: flow cytometry on primary human NK cells, 37 °C, biotinylated antibody, streptavidin-FITC, without polyclonal human IgG
[5] = target: human CD16A-mFc (158F) (sAg_107) (human) (UniProt P08637); experiment: ELISA, plate coated with human CD16A-mFc (158F), one-site fit, mean of 3
[6] = target: CD16A endogenously expressed on primary human NK cells (human) (UniProt P08637); experiment: flow cytometry on primary human NK cells, biotinylated antibody, 37 C, without IgG, mean of 4
[7] = target: recombinant human FcγRIIB (CD32B), biotinylated (human) (UniProt P31994); experiment: SPR (Biacore), 37 °C, biotin-captured human CD32B as ligand, steady-state affinity fit
Sequence of recombinant human FcγRIIB (CD32B), biotinylated (human) (P31994 43-217 limits assumed): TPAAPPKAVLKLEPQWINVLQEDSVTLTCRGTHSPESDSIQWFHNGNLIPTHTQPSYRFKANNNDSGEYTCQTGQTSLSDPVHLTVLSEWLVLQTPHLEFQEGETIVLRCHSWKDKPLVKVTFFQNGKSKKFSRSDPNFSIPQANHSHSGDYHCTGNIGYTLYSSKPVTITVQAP

[8] = target: recombinant cynomolgus FcγRIIB/C (CD32B/C), biotinylated (cynomolgus); experiment: SPR (Biacore), 37 °C, biotin-captured cynomolgus CD32B/C as ligand, steady-state affinity fit
[9] = target: recombinant human FcγRIIC (CD32C), biotinylated (human) (UniProt P31995); experiment: SPR (Biacore), 37 °C, biotin-captured human CD32C as ligand, steady-state affinity fit
Sequence of recombinant human FcγRIIC (CD32C), biotinylated (human) (P31995 43-223 limits assumed): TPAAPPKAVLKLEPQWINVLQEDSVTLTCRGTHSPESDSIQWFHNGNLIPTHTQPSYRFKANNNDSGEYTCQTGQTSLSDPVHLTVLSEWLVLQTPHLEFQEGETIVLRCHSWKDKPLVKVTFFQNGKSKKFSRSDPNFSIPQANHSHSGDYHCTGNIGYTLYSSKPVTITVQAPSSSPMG

[10] = target: recombinant human FcγRIIA (CD32A), biotinylated (human) (UniProt P12318); experiment: SPR (Biacore T200), 37 C, biotin-captured receptor, steady-state affinity
Sequence of recombinant human FcγRIIA (CD32A), biotinylated (human) (P12318 34-218 limits assumed): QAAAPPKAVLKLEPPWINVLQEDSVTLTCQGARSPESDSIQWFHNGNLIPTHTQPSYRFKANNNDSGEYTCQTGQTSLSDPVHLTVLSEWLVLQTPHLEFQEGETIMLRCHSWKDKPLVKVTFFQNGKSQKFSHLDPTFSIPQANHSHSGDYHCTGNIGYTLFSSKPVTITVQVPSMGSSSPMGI

[11] = target: recombinant murine FcγRIIB (CD32), biotinylated (murine) (UniProt P08101); experiment: as above
Sequence of recombinant murine FcγRIIB (CD32), biotinylated (murine) (P08101 30-207 limits assumed): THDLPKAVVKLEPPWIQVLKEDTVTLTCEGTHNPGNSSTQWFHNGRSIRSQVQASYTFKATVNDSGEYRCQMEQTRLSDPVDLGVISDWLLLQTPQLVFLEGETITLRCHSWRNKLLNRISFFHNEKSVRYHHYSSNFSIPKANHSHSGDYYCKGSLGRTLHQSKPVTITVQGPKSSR

[12] = target: recombinant cynomolgus FcγRIIA (CD32A), biotinylated (cynomolgus); experiment: SPR (Biacore), 37 °C, biotin-captured cynomolgus CD32A as ligand, steady-state affinity fit

Sequence of control antibody MOR208 (anti-CD19 human IgG1 Fc enhanced) (HC): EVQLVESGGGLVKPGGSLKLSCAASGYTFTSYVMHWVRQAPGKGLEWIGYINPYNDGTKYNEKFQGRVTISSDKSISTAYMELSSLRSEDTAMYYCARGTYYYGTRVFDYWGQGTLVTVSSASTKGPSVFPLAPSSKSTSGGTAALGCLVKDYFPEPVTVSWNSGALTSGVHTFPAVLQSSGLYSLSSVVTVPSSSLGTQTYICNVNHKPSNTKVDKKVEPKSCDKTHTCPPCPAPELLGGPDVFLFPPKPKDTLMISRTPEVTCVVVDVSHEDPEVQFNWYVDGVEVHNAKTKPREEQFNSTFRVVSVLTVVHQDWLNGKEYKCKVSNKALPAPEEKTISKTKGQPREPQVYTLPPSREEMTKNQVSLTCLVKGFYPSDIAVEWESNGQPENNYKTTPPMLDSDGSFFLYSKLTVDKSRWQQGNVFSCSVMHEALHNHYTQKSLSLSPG
Sequence of control antibody MOR208 (anti-CD19 human IgG1 Fc enhanced) (LC): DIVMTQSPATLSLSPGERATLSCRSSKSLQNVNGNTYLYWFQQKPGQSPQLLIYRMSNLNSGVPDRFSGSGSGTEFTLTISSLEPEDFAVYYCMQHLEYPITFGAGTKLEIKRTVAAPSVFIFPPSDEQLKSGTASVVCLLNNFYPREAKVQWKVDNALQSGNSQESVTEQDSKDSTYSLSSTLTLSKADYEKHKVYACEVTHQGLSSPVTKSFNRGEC
Sequence of CD16A endogenously expressed on primary human NK cells (human) (P08637 17-254 limits assumed): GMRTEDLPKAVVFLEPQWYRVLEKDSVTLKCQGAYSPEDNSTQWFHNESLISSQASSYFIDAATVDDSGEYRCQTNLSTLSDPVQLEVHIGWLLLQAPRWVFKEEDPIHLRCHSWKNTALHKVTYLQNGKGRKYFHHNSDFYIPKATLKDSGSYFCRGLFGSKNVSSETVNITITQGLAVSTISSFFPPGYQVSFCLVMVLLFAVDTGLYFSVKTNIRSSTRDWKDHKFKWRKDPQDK
Sequence of human CD16A-mFc (158F) (sAg_107) (human) (P08637 17-208 limits assumed): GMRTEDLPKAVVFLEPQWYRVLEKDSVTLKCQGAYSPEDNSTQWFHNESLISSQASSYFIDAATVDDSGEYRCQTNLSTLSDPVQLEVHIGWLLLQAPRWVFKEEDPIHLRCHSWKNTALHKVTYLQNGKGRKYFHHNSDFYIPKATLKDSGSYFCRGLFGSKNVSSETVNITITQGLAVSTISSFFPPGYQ

Kd [1] [nM] | EC50 (read off the curve) [2] [nM] | EC50 (read off the curve) [3] [nM] | EC50 (read off the curve) [4] [nM] | Kd [5] [nM] | Kd [6] [nM] | Kd [7] [nM] | Kd [8] [nM] | Kd [9] [nM] | Kd [10] [nM] | Kd [11] [nM] | Kd [12] [nM] | Substance
54.6 | 0.03 | 0.3 | 0.4 | 0.02 | 0.3 | – | – | – | – | – | – | anti-human CD16 antibody clone 3G8
– | – | – | – | – | – | 821 | 351 | 474 | 223 | 1750 | 263 | control antibody MOR208 (anti-CD19 human IgG1 Fc enhanced)
